The target in test [1] is T1, LEPR-A409E (signaling-defective mutant) on HEK293 reporter cells (human, UniProt P48357 22-1165).
T1 sequence: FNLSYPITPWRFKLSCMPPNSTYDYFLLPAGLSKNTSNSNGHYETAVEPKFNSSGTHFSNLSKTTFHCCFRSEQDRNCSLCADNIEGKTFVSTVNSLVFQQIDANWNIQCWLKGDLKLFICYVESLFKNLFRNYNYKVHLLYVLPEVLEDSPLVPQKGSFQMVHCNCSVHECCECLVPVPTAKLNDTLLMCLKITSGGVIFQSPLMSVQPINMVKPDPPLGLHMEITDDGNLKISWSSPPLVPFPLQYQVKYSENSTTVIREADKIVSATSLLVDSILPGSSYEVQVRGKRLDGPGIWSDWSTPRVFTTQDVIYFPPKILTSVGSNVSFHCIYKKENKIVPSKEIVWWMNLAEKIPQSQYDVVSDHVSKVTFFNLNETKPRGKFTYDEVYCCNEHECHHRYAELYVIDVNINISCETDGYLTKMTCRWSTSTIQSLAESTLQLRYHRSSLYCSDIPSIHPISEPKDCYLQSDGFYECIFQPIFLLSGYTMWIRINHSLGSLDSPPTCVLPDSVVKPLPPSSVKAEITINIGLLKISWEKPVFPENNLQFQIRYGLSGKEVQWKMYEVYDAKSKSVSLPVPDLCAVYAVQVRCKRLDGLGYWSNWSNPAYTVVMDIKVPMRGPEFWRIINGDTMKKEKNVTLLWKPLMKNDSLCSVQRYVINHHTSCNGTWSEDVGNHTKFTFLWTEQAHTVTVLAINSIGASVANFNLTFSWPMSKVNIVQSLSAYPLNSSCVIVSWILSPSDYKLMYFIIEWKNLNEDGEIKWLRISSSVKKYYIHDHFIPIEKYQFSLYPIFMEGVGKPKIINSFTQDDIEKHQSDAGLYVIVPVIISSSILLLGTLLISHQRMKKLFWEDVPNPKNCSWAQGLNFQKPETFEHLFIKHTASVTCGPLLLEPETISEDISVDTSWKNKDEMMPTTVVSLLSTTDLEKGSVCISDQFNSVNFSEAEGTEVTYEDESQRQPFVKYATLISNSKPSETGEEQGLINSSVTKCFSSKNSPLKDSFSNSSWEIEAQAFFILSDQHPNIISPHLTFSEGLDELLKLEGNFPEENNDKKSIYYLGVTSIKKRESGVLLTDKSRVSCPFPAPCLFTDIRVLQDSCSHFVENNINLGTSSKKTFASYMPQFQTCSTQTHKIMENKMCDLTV
Description: cell-based or functional assay.

Test [2] addresses T2, wild-type LEPR on HEK293 reporter cells (UniProt P48357 22-1165, limits assumed).
T2 sequence (looked up): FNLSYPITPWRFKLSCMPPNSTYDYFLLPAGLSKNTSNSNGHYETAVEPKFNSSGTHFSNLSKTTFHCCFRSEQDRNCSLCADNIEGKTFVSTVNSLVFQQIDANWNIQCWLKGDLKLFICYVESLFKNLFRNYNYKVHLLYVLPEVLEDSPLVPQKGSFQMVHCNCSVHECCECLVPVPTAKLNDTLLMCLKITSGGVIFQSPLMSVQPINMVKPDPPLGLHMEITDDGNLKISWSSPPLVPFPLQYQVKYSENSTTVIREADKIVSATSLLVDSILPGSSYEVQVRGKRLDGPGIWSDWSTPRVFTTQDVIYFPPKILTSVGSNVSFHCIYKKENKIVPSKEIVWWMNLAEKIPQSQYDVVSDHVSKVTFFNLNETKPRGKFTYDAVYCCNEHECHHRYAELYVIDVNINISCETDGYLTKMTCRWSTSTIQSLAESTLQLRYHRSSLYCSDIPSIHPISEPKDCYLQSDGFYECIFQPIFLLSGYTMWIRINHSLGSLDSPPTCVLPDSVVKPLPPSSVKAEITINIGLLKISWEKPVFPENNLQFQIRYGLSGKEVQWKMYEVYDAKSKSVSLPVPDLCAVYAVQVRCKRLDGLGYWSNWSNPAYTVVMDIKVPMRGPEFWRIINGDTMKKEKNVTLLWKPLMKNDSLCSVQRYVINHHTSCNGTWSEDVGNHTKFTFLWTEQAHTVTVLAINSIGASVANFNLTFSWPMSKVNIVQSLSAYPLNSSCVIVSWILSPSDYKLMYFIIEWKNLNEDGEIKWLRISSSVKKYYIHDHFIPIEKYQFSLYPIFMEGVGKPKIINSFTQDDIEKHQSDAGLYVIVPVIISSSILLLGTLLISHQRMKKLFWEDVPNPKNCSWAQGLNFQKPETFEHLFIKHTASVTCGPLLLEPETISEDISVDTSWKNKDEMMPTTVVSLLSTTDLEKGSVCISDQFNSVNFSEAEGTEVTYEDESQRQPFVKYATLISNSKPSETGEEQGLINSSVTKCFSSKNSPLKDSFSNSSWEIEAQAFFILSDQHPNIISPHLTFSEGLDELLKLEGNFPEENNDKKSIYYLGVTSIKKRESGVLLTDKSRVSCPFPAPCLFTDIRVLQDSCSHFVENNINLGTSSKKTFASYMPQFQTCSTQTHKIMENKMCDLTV
The test is described as follows: cell-based or functional assay.

The text below walks through data of patent US20190309079A1 (Regeneron, published 2019).

B1: H4H16650P2 (antibody, V domains shown)
VH: QVQLVESGGGVVQPGKSLRLSCVASGFTFSSDAMYWVRQAPGKGLEWVAVIYYDGNYQYYEDSVKGRFTISRDNSQNTLDLQMNSLRVDDTAVYFCARLNWDYWYLDLWGRGTLVTVSS
VL: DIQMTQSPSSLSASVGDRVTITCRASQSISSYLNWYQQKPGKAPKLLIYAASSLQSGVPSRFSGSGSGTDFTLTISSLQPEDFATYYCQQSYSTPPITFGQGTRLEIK
With B1, the figures for the “EC50 (read off the curve), pSTAT3 Y705/STAT3 densitometry” value in test [1] and in test [2] were roughly 2e-10 M and roughly 5e-10 M, respectively.
